From article PMC10563049

Target: recombinant VE-cadherin-Fc (UniProt P33151)
Test: atomic force microscopy

- binding activity (binding probability by AFM): 61%
Substance: recombinant VE-cadherin-Fc (from UniProt P33151) (Fc fusion)
